Source: patent publication US20200283521A1
Like-named read-outs stand apart in the source and are kept apart here.

Legend:
[1] = target: cynomolgus monkey C-KIT, full length, on CHO-K1 cells (cynomolgus monkey); assay: cell-based or functional assay
[2] = target: human C-KIT, full length, on cells (human) (UniProt P10721); assay: cell-based or functional assay
[3] = target: cynomolgus monkey C-KIT-Fc (cynomolgus monkey); assay: HTRF epitope competition in solution; unlabelled h37M IgG1-3M titrated against terbium-labelled h37M IgG1 on cyno C-KIT-Fc
[4] = target: cynomolgus monkey C-KIT-Fc (cynomolgus monkey); assay: direct ELISA at 1 µg/ml
[5] = target: cynomolgus monkey C-KIT-Fc (cynomolgus monkey); assay: HTRF competition vs Tb-h37M IgG1
[6] = target: cynomolgus monkey C-KIT-Fc (cynomolgus monkey); assay: HTRF competition vs Tb-h37M IgG1; remark: listed apart in the source
[7] = target: cynomolgus monkey C-KIT-Fc (cynomolgus monkey); assay: direct titration ELISA on coated C-KIT-Fc, IgG1 format
[8] = target: cynomolgus monkey C-KIT-Fc (cynomolgus monkey); assay: as above; remark: listed apart in the source
[9] = target: cynomolgus monkey C-KIT, full length, on CHO-K1 cells (cynomolgus monkey); assay: flow cytometry, C-KIT-transfected CHO-K1 cells, IgG1 format

Binder | Cyno C-KIT CHO FabZAP IC50 (pM) [1] [pM] | Human C-KIT CHO FabZAP IC50 (pM) [2] [pM] | TF-1 FabZAP IC50 (pM) [2] [pM] | TF-1 proliferation IC50 [2] [nM] | IC50 (read off the curve) [3] [µg/mL] | OD450 nm [4] [OD450 nm] | IC50 [5] [µg/mL] | IC50 [6] [µg/mL] | EC50 (read off the curve) [7] [µg/mL] | EC50 (read off the curve) [8] [µg/mL] | EC50 (read off the curve) [9] [µg/mL]
h37M-IgG1-3M (antibody, V domains shown) VH: QVQLVQSGAEVKKPGASVKLSCKASGYTFTDYYINWVRQAPGKGLEWIARIYPGSGNTYYNEKFKGRATLTADKSTSTAYMQLSSLRSEDTAVYFCARGVYYFDYWGQGTTVTVSS VL: DIVMTQSPSSLSASVGDRVTITCKASQNVRTNVAWYQQKPGKAPKALIYSASYRYSGVPDRFTGSGSGTDFTLTISSLQPEDFADYFCQQYNSYPRTFGGGTKVEIK | 7.82 | 5.7 | 12.8 | 0.11 | 0.02 |  |  |  |  |  | 
humanized h37M, human IgG1 (antibody, V domains shown) VH: QVQLVQSGAEVKKPGASVKLSCKASGYTFTDYYINWVRQAPGKGLEWIARIYPGSGNTYYNEKFKGRATLTADKSTSTAYMQLSSLRSEDTAVYFCARGVYYFDYWGQGTTVTVSS VL: DIVMTQSPSSLSASVGDRVTITCKASQNVRTNVAWYQQKPGKAPKALIYSASYRYSGVPDRFTGSGSGTDFTLTISSLQPEDFADYFCQQYNSYPRTFGGGTKVEIK |  |  |  |  |  | > 2 | 0.035 | 0.036 | 0.1 | 0.2 | 0.2
